The values that follow come from patent US20190300590A1 (PROTAGONIST THERAPEUTICS, published 2019).

Assay [1] concerns the target T1, IL23R_huFC (human, UniProt Q5VWK5 24-353).
T1 sequence (looked up): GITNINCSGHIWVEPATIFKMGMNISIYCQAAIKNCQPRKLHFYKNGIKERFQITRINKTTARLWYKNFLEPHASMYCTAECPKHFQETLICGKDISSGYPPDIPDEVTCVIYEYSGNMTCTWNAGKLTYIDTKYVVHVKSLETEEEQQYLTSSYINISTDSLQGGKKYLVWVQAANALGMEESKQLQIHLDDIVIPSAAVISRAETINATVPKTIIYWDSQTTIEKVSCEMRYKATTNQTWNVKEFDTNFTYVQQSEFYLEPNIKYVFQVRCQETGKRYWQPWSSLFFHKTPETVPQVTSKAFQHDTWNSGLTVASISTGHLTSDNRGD
Put plainly: IL23-IL23R competitive ELISA. A general note: ELISA stands for enzyme-linked immunosorbent assay.

Assay [2] deals with T2, IL-23R on human cells (IL-23R-expressing DB cells; human NK cells) (human, UniProt Q5VWK5 24-629).
T2 sequence (looked up): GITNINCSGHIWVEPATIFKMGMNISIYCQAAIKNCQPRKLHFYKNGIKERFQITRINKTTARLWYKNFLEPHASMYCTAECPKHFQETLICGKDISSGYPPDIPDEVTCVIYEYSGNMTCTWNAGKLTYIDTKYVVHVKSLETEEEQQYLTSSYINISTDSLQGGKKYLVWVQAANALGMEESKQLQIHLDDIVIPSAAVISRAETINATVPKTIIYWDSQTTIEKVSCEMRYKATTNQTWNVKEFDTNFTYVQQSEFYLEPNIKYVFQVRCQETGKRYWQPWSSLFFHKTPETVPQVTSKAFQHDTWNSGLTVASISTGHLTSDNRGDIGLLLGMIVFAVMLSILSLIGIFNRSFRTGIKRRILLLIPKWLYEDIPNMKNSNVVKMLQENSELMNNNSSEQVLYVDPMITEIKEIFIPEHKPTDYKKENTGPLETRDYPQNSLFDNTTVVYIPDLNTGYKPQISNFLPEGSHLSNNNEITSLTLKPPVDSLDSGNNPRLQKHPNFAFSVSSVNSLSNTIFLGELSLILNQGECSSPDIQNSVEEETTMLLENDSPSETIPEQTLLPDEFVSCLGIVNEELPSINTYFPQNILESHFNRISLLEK
The assay is described as follows: cell-based or functional assay.

Assay [3] deals with T2, IL-23R on human cells …. Put plainly: cell-based or functional assay. The source holds these as a separate data set.
Assay [4] addresses T3, IL23R_huFC (human, UniProt Q5VWK5 24-353).
T3 sequence (looked up): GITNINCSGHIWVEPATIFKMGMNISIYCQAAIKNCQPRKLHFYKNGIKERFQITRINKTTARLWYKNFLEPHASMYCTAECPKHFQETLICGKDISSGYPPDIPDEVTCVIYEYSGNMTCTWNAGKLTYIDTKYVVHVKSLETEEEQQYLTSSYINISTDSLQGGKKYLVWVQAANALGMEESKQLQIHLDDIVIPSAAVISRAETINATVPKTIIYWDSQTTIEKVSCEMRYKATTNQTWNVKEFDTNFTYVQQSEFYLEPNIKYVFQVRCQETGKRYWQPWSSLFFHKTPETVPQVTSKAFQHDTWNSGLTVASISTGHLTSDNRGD
Put plainly: human ELISA vs IL-23.

In assay [5] the target is Rat IL-23R_huFC (rat). The assay is described as follows: rat ELISA vs IL-23.
The target in another assay is T4, IL-23R on DB cells (human, UniProt Q5VWK5 24-629).
T4 sequence (looked up): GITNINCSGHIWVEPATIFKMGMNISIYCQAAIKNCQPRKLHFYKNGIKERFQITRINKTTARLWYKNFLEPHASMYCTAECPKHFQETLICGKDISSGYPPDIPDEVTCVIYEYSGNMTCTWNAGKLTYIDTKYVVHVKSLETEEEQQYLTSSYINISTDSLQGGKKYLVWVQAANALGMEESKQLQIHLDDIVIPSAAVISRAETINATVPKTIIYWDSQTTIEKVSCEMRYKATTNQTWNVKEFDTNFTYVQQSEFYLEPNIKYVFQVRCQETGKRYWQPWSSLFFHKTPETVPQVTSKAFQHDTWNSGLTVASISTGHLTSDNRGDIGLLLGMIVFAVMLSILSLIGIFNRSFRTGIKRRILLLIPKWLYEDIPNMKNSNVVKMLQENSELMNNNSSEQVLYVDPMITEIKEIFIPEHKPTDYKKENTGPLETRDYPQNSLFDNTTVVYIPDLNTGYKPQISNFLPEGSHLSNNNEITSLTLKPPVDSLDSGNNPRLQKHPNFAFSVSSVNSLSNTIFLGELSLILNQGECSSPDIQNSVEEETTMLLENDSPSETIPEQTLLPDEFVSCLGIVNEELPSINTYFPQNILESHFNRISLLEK
The assay is described as follows: cell-based or functional assay.

The target in assay [6] is T5, Rat IL-23R_huFC (rat, UniProt F1LX96 39-369).
T5 sequence: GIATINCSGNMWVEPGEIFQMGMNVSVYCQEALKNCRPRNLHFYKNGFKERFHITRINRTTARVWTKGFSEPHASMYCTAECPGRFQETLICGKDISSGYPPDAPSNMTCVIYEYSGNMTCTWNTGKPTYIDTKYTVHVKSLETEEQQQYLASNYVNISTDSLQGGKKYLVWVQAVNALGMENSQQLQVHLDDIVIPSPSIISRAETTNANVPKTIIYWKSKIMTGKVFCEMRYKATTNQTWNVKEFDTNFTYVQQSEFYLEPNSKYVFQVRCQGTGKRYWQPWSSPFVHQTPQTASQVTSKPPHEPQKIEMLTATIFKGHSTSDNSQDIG
The assay is described as follows: rat IL-23R competitive binding ELISA.

In assay [7] the target is T6, IL23R_huFC (human, UniProt Q5VWK5 24-353).
T6 sequence (looked up): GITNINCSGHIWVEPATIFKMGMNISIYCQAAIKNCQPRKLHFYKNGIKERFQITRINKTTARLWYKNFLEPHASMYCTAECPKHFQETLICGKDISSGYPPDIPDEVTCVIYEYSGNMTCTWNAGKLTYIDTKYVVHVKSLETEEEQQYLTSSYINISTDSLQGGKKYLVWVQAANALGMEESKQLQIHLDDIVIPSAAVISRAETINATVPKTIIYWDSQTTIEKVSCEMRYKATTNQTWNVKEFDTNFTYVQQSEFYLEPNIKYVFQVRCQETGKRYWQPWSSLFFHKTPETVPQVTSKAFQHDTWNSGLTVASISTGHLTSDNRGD
The assay is described as follows: IL23-IL23R competitive binding ELISA.

Assay [8] addresses T3, IL23R_huFC. The assay is described as follows: human ELISA vs IL-23. This is another data set of the same source.

*1 amine or outer side, *2 acyl side, *3 side chain or, on linkers, in order; H or OH if unused. Bridges are numbered along the chain shown (N, C = ends). [ ]: non-standard residue; d: D form. Phe(4-OMe) = 4-methoxy-L-phenylalanine (O-methyl-L-tyrosine), COc1ccc(C[C@H](N[*:1])C(=O)[*:2])cc1; Abu(4-yl) = O=C([C@H](CC[*:3])N[*:1])[*:2]; 2Nal = N[C@@H](Cc1ccc2ccccc2c1)C(=O)O; β3hR = N=C(N)NCCC[C@H](N)CC(=O)O; NMeK = CN[C@@H](CCCCN)C(=O)O; αMeK = C[C@](N)(CCCCN)C(=O)O; Abu = CC[C@H](N)C(=O)O; AEA = NCCOCC(=O)O

In the case of Ac-ARTWQ[MeCys]YWRKFG[AEA][dK]-NH2 (not fully specified; printed as Ac-ARTWQ-[MeCys]-YWRKFG-[AEA]-[(D)Lys]-NH2) [Ac-ARTWQ-[MeCys]-YWRKFG-[AEA]-[(D)Lys]-NH2], the half-inhibitory concentration (IC50) with IL23R_huFC [1] was 7570 nM.
The same measure, in the same setting: next, Ac-C[NMeK]TWQCYWRVFG[AEA][dK]-NH2 (cysteine pairing not given here) [Ac-C-[N-MeLys]-TWQCYWRVFG-[AEA]-[(D)Lys]-NH2]: 80 nM.
Same read-out and setting: next, Ac-CKTWQCYWRVFG[AEA][dK]-NH2 (cysteine pairing not given here) [Ac-CKTWQCYWRVFG-[AEA]-[(D)Lys]-NH2]: 40 nM.
In the case of XQTWQXFXLKNN (as bracketed in name; Pen-Pen disulfide) [Ac-[Pen]-QTWQ-[Pen]-[Phe[4-(2-aminoethoxy)]-[2-Nal]-[α-MeLeu]-[Lys(Ac)]-NN-NH2], the “NK cell assay IC50 (IFNγ)” value in [2] was under 10 nM.
Ac-[Abu]QTWQC[Phe(4-OMe)][2Nal][αMeK]ENG-NH2 (thioether 1-6) [Ac-Cyclo-[[Abu]-QTWQC]-[Phe(4-OMe)]-[2-Nal]-[α-MeLys]-ENG-NH2]: the “pStat3 HTRF IC50” value in assay [3] is under 10 nM. The half-inhibitory concentration (IC50) with IL23R_huFC [4] is 25 to 100 nM; with Rat IL-23R_huFC [5], 100 to 1000 nM.

B1: Ac-CSTWQCYWLKHGGE-NH2 (peptide)
peptide: Ac-CSTWQCYWLKHGGE-NH2
modifications: disulfide 1-6
SMILES: CC(=O)N[C@H]1CSSC[C@@H](C(=O)N[C@@H](Cc2ccc(O)cc2)C(=O)N[C@@H](Cc2c[nH]c3ccccc23)C(=O)N[C@@H](CC(C)C)C(=O)N[C@@H](CCCCN)C(=O)N[C@@H](Cc2c[nH]cn2)C(=O)NCC(=O)NCC(=O)N[C@@H](CCC(=O)O)C(N)=O)NC(=O)[C@H](CCC(N)=O)NC(=O)[C@H](Cc2c[nH]c3ccccc23)NC(=O)[C@H]([C@@H](C)O)NC(=O)[C@H](CO)NC1=O
Take B1: the “pStat3 HTRF IC50” value with IL-23R on DB cells worked out at 2 nM. The IC50 in the assay with Rat IL-23R_huFC [6] is 24 nM.
As for CQTWQCYWXLNG (Ac; Z as printed (not explained); NH2) [Ac-CQTWQCYWZ-LNG-NH2], the IC50 with IL23R_huFC [7] stood at 800 nM.
In the case of Ac-[Abu]QTWQCYWRENG[AEA][dK]-NH2 (thioether 1-6) [Ac-Cyclo-[[Abu]-QTWQC]-YWRENG-[AEA]-[(D)Lys]-NH2], the half-maximal inhibitory concentration (IC50) in the assay with Rat IL-23R_huFC [5] and in the assay with IL23R_huFC [8] was 100 to 1000 nM throughout.

B2: Ac-CQTWQCYW-[βhArg]-VNG-[AEA]-[(D)Lys]-NH2 (peptide)
peptide: Ac-CQTWQCYW[β3hR]VNG[AEA][dK]-NH2
modifications: disulfide 1-6
SMILES: CC(=O)N[C@H]1CSSC[C@@H](C(=O)N[C@@H](Cc2ccc(O)cc2)C(=O)N[C@@H](Cc2c[nH]c3ccccc23)C(=O)N[C@@H](CCCNC(=N)N)CC(=O)N[C@H](C(=O)N[C@@H](CC(N)=O)C(=O)NCC(=O)NCCOCC(=O)N[C@H](CCCCN)C(N)=O)C(C)C)NC(=O)[C@H](CCC(N)=O)NC(=O)[C@H](Cc2c[nH]c3ccccc23)NC(=O)[C@H]([C@@H](C)O)NC(=O)[C@H](CCC(N)=O)NC1=O
Molecule B2 returned a concentration for half-maximal inhibition (IC50) in the assay with IL23R_huFC [1] of 922 nM.
For the molecule XNTWQXFXXKNA (as bracketed in name; Pen-Pen disulfide) [Ac-[Pen]-NTWQ-[Pen]-[Phe]4-(2-aminoethoxy)]-[2-Nal]-[Aib]-[Lys(Ac)]-N-[βAlal-NH2], in assay [2], the “NK cell assay IC50 (IFNγ)” value is under 10 nM.
Same read-out and setting: the figure for XNTWQXFXXKNN (as bracketed in name; Pen-Pen disulfide) [Ac-[Pen]-NTWQ[Pen]-[Phe(CONH2)]-[2-Nal]-[Aib]-[Lys(Ac)]-NN-NH2] is under 10 nM.
On to Ac-CQTWQCYW[dL]ENG-NH2 (cysteine pairing not given here) [Ac-CQTWQCYW-[(D)Leu]-ENG-NH2], for which the IC50 with IL23R_huFC [7] is 319 nM.

B3: Ac-Cyclo-[[Abu]RTWQC]-YWRKFG-[AEA]-[(D)Lys]-NH2 (peptide)
peptide: Ac-[Abu(4-yl)]RTWQCYWRKFG[AEA][dK]-NH2
modifications: thioether 1-6
SMILES: CC(=O)N[C@H]1CCSC[C@@H](C(=O)N[C@@H](Cc2ccc(O)cc2)C(=O)N[C@@H](Cc2c[nH]c3ccccc23)C(=O)N[C@@H](CCCNC(=N)N)C(=O)N[C@@H](CCCCN)C(=O)N[C@@H](Cc2ccccc2)C(=O)NCC(=O)NCCOCC(=O)N[C@H](CCCCN)C(N)=O)NC(=O)[C@H](CCC(N)=O)NC(=O)[C@H](Cc2c[nH]c3ccccc23)NC(=O)[C@H]([C@@H](C)O)NC(=O)[C@H](CCCNC(=N)N)NC1=O
With B3, the IC50 with IL23R_huFC [4] was 25 to 100 nM; in the assay with Rat IL-23R_huFC [5] it was 100 to 1000 nM.

The IC50 is the concentration needed to halve the response being measured. A higher IC50 goes with lower potency.
